# Target: glycosylated myrosinase without GST-tag (produced in S. cerevisiae MGY70-myr) (broccoli)
# Assay: SEC; Sephacryl S-200 HR column 0.7 x 30 cm, 1 mL of purified myrosinase fraction (1 mg/mL) loaded, 0.3 mL/min, 0.2 M Tris-HCl pH 7.4; mass from a calibration curve with protein standards; self-association, monomer to dimer
substance,measurement,value
glycosylated myrosinase without GST-tag (produced in S. cerevisiae MGY70-myr) (enzyme),stoichiometry N,2
